Key:
human S100A5 (human) = biological target: T1, human S100A5 (human); assay: ITC
T1 sequence (P33763 1-92, looked up): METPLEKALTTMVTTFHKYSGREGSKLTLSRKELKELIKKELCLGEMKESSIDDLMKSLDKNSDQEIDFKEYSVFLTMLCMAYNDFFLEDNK

human S100A6 (human) = assay: ITC

“peptide from Siah-interacting protein (SIP) (from UniProt Q9HB71 188-218)” showed a Kd (human S100A5 (human)) greater than 100 µM and a Kd (human S100A6 (human)) of 20 µM.
